Experimental data taken from patent US20260146107A1 (ALLIGATOR BIOSCIENCE, published 2026).

T1: human CEACAM5, recombinant (R&D Systems #4128-CM-050) (human, UniProt P06731 35-685)
T1 construct: Bought; coated in ELISA and used as monomeric analyte in Octet; also called hCEACAM-5; Human CEACAM5-His; not shown: His tag
T1 sequence (looked up): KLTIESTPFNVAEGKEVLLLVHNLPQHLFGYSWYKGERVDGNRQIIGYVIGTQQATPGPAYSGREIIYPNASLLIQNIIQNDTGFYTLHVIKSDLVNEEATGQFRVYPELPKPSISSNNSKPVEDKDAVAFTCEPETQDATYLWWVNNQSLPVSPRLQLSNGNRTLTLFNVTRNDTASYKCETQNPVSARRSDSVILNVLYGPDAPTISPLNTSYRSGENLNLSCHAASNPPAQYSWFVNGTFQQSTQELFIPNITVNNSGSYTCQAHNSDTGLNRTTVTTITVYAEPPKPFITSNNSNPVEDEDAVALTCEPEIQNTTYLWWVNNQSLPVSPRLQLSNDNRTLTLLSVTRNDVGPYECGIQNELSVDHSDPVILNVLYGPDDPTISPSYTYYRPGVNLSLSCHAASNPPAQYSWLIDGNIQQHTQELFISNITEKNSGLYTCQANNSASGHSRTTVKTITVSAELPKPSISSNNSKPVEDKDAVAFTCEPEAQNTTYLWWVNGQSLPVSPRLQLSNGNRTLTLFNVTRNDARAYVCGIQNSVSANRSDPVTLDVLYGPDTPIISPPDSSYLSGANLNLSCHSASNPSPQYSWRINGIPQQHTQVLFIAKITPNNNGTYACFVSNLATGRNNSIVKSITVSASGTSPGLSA

T2: human CEACAM1, recombinant (R&D Systems #2244-CM-050) (human, UniProt P13688 35-428)
T2 construct: also called hCEACAM-1
T2 sequence (looked up): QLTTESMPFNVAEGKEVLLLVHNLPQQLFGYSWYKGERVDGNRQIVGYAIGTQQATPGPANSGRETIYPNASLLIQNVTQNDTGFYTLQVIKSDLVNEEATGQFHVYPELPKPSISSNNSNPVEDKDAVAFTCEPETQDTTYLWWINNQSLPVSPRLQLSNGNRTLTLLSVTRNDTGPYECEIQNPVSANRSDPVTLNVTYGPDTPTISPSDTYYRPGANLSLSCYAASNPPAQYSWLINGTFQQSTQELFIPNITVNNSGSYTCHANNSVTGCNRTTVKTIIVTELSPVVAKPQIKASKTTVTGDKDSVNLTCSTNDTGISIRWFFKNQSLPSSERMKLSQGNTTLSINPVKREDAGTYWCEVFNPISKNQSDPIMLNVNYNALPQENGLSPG


How the values were obtained:
[1] = target: T1, human CEACAM5, recombinant (R&D Systems …); assay: Octet BLI, IgG1 captured on AHC tips, CEACAM5-His in solution, 1:1 fit
Method: Kinetic measurements were performed in the Octet RED96 platform using several different setups. Monoclonal antibodies (listed in Table 9), serially diluted ½ starting at 100 nM, were captured to anti human IgG Fc Capture (AHC) Biosensor tips (Sartorius #18-5060). Human CEACAM5-His (R&D Systems #4128-CM-050) diluted in 1× kinetic buffer (Sartorius) at 100 nM was then added. Binding kinetics was studied in 1× kinetic buffer where association was allowed for 300 sec followed by dissociation for 600 sec. Sensor tips were regenerated with 10 mM Glycine pH 1.7. Data generated were referenced by subtracting blank or parallel buffer blank, the baseline was aligned to the y-axis, inter-step correction by alignment against dissociation was performed and the data was smoothed by Savitzky-Golay filter in the data analysis software (v9.0.0.14). The processed data was fitted using a 1:1 Langmuir binding model with R² or X² as a measurement of fitting accuracy.

[2] = target: T2, human CEACAM1, recombinant (R&D Systems …); assay: ELISA, antigen coated at 0.5 µg/mL, IgG1 antibody at 10 µg/ml, anti-human kappa-HRP, luminescence
Method: 96-well plates were coated with 0.5 μg/mL antigen, hCEACAM-5 (4128-CM-050, R&D Systems), hCEACAM-1 (2244-CM-050, R&D Systems), hCEACAM-6(3934-CM-050, R&D Systems) or CEACAM-8 (9639-CM-050, R&D Systems) in PBS over night at 4° C. After washing with PBS/0.05% Tween 20 (PBST), the plates were blocked with PBST, 2% BSA for at least 30 minutes at room temperature before a second round of washing. […] After washing, plates were incubated with 50 μl detection antibody (0.5 μg/ml HRP conjugated goat anti human-kappa light chain, #STAR127P, AbD Serotec). Finally, a final round of washing was performed and bound complexes detected using SuperSignal Pico Luminescent as substrate and luminescence signals were measured using Fluostar Optima.

[3] = target: human CD40 expressed on cells (CD40 reporter cells, HEK Blue CD40L cells, primary B cells, tumour APCs) (human, UniProt P25942 21-277); assay: cell-based or functional assay
Sequence of human CD40 expressed on cells (CD40 reporter cells, HEK Blue CD40L cells, primary B cells, tumour APCs) (P25942 21-277): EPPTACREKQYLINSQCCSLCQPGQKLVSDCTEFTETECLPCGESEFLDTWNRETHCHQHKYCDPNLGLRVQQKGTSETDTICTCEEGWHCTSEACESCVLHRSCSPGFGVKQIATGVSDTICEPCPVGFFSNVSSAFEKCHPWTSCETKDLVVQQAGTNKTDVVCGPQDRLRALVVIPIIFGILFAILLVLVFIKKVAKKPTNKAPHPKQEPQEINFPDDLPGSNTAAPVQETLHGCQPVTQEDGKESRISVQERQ

Kd [1]	koff [1]	kon [1]	binding result [2]	EC50 of SEAP release, HEK Blue CD40L reporter cells, bsAb crosslinked to CHO-CEACAM5 cells, 0 Raji sink cells/well [3]	EC50 of SEAP release, same assay, 10 000 Raji sink cells/well [3]	EC50 of SEAP release, same assay, 30 000 Raji sink cells/well [3]	EC50 of SEAP release, same assay, 90 000 Raji sink cells/well [3]	Binder
100 nM	0.008 s⁻¹	60000 M⁻¹ s⁻¹	no binding (tested: 10 µg/ml)	–	–	–	–	AC_05081 (antibody, human IgG1, kappa, V domains shown) VH: EVQLLESGGGLVQPGGSLRLSCAASGFTFSSSYMGWVRQAPGKGLEWVSSIGSGSYSTSYADSVKGRFTISRDNSKNTLYLQMNSLRAEDTAVYYCARYPSVPFQPHLDYWGQGTLVTVSS VL: DIQMTQSPSSLSASVGDRVTITCRASQSISSYLNWYQQKPGKAPKLLIYAASSLQSGVPSRFSGSGSGTDFTLTISSLQPEDFATYYCQQAGNPHTFGQGTKLEIKR
0.008 nM	2e-06 s⁻¹	200000 M⁻¹ s⁻¹	binds	–	–	–	–	AC_05080 (antibody, V domains shown) VH: EVQLLESGGGLVQPGGSLRLSCAASGFTFSSSYMGWVRQAPGKGLEWVSSIGSGSYSTSYADSVKGRFTISRDNSKNTLYLQMNSLRAEDTAVYYCARYPSVPFPPLLDYWGQGTLVTVSS VL: DIQMTQSPSSLSASVGDRVTITCRASQSISSYLNWYQQKPGKAPKLLIYAASSLQSGVPSRFSGSGSGTDFTLTISSLQPEDFATYYCQQAGNPHTFGQGTKLEIK
< 0.001 nM	< 1e-07 s⁻¹	300000 M⁻¹ s⁻¹	–	–	–	–	–	AC_05059 (antibody, human IgG1, kappa, V domains shown) VH: EVQLLESGGGLVQPGGSLRLSCAASGFTFSSSYMGWVRQAPGKGLEWVSSIGSGSYSTSYADSVKGRFTISRDNSKNTLYLQMNSLRAEDTAVYYCARYPSVPFPPHLDYWGQGTLVTVSS VL: DIQMTQSPSSLSASVGDRVTITCRASQSISSYLNWYQQKPGKAPKLLIYAASSLQSGVPSRFSGSGSGTDFTLTISSLQPEDFATYYCQQAGNPHTFGQGTKLEIKR
0.4 nM	0.0001 s⁻¹	300000 M⁻¹ s⁻¹	no binding (tested: 10 µg/ml)	–	–	–	–	AC_05093 (antibody, human IgG1, kappa, V domains shown) VH: EVQLLESGGGLVQPGGSLRLSCAASGFTFSSSYMGWVRQAPGKGLEWVSSIGSGSYSTSYADSVKGRFTISRDNSKNTLYLQMNSLRAEDTAVYYCARYPSVPFPPHVDYWGQGTLVTVSS VL: DIQMTQSPSSLSASVGDRVTITCRASQSISSYLNWYQQKPGKAPKLLIYAASSLQSGVPSRFSGSGSGTDFTLTISSLQPEDFATYYCQQAGNPHTFGQGTKLEIKR
50 nM	0.0008 s⁻¹	20000 M⁻¹ s⁻¹	no binding (tested: 10 µg/ml)	–	–	–	–	AC_05094 (antibody, human IgG1, kappa, V domains shown) VH: EVQLLESGGGLVQPGGSLRLSCAASGFTFSSSYMGWVRQAPGKGLEWVSSIGSGSYSTSYADSVKGRFTISRDNSKNTLYLQMNSLRAEDTAVYYCARYPSVPFPPHWDYWGQGTLVTVSS VL: DIQMTQSPSSLSASVGDRVTITCRASQSISSYLNWYQQKPGKAPKLLIYAASSLQSGVPSRFSGSGSGTDFTLTISSLQPEDFATYYCQQAGNPHTFGQGTKLEIKR
20 nM	0.03 s⁻¹	1e+06 M⁻¹ s⁻¹	no binding (tested: 10 µg/ml)	–	–	–	–	AC_05088 (antibody, human IgG1, kappa, V domains shown) VH: EVQLLESGGGLVQPGGSLRLSCAASGFTFSSSYMGWVRQAPGKGLEWVSSIGSGSYSTSYADSVKGRFTISRDNSKNTLYLQMNSLRAEDTAVYYCARYPSVLFPPHLDYWGQGTLVTVSS VL: DIQMTQSPSSLSASVGDRVTITCRASQSISSYLNWYQQKPGKAPKLLIYAASSLQSGVPSRFSGSGSGTDFTLTISSLQPEDFATYYCQQAGNPHTFGQGTKLEIKR
2 nM	0.0003 s⁻¹	200000 M⁻¹ s⁻¹	no binding (tested: 10 µg/ml)	–	–	–	–	AC_05091 (antibody, human IgG1, kappa, V domains shown) VH: EVQLLESGGGLVQPGGSLRLSCAASGFTFSSSYMGWVRQAPGKGLEWVSSIGSGSYSTSYADSVKGRFTISRDNSKNTLYLQMNSLRAEDTAVYYCARYPSVPFPPHFDYWGQGTLVTVSS VL: DIQMTQSPSSLSASVGDRVTITCRASQSISSYLNWYQQKPGKAPKLLIYAASSLQSGVPSRFSGSGSGTDFTLTISSLQPEDFATYYCQQAGNPHTFGQGTKLEIKR
20 nM	0.004 s⁻¹	300000 M⁻¹ s⁻¹	no binding (tested: 10 µg/ml)	–	–	–	–	AC_05090 (antibody, human IgG1, kappa, V domains shown) VH: EVQLLESGGGLVQPGGSLRLSCAASGFTFSSSYMGWVRQAPGKGLEWVSSIGSGSYSTSYADSVKGRFTISRDNSKNTLYLQMNSLRAEDTAVYYCARYPSVPFPLHLDYWGQGTLVTVSS VL: DIQMTQSPSSLSASVGDRVTITCRASQSISSYLNWYQQKPGKAPKLLIYAASSLQSGVPSRFSGSGSGTDFTLTISSLQPEDFATYYCQQAGNPHTFGQGTKLEIKR
40 nM	0.01 s⁻¹	300000 M⁻¹ s⁻¹	no binding (tested: 10 µg/ml)	–	–	–	–	AC_05089 (antibody, human IgG1, kappa, V domains shown) VH: EVQLLESGGGLVQPGGSLRLSCAASGFTFSSSYMGWVRQAPGKGLEWVSSIGSGSYSTSYADSVKGRFTISRDNSKNTLYLQMNSLRAEDTAVYYCARYPSVPFPHHLDYWGQGTLVTVSS VL: DIQMTQSPSSLSASVGDRVTITCRASQSISSYLNWYQQKPGKAPKLLIYAASSLQSGVPSRFSGSGSGTDFTLTISSLQPEDFATYYCQQAGNPHTFGQGTKLEIKR
0.07 nM	2e-05 s⁻¹	200000 M⁻¹ s⁻¹	no binding (tested: 10 µg/ml)	–	–	–	–	AC_05097 (antibody, human IgG1, kappa, V domains shown) VH: EVQLLESGGGLVQPGGSLRLSCAASGFTFSSSYMGWVRQAPGKGLEWVSSIGSGSYSTSYADSVKGRFTISRDNSKNTLYLQMNSLRAEDTAVYYCARYPSVPFSPHLDYWGQGTLVTVSS VL: DIQMTQSPSSLSASVGDRVTITCRASQSISSYLNWYQQKPGKAPKLLIYAASSLQSGVPSRFSGSGSGTDFTLTISSLQPEDFATYYCQQAGNPHTFGQGTKLEIKR
–	–	–	–	0.04 nM	0.06 nM	0.11 nM	0.36 nM	Multi42 (bispecific antibody, human IgG1, kappa, L234A L235A) chain 1: not shown chain 2: EIVLTQSPGTLSLSPGERATLSCRASQSVSSSYLAWYQEKPGQAPRLLIYGASSRATGIPDRFSGSGSGTDFTLTISRLEPEDFAVYYCQQYWYPLTFGQGTKLEIKRTVAAPSVFIFPPSDEQLKSGTASVVCYLNNFYPREAKVQWKVDNALQSGNSQESVTEQDSKDSTYSLWSTLTLSKADYEKHKVYACEVTHQGLSSPVTKSFNRGEC chain 3: EVQLLESGGGLVQPGGSLRLSCAASGFTFSTYGMHWVREAPGKGLEWLSYISGGSSYIFYADSVKGRFTISRDNSKNTLYLQMNSLRAEDTAVYYCARILRGGSGMDLWGQGTLVTVSSASTKGPSVFPLAPSSKSTSGGTAALGCLVKDYFPEPVTVSWNSGALTSGVHTFPAVLQSSGLYSLTSVVEVPSSSLGTQTYICNVNHKPSNTKVDKKVEPKSC
–	–	–	no binding (tested: 10 µg/ml)	–	–	–	–	AC_05099 (antibody, V domains shown) VH: not shown VL: DIQMTQSPSSLSASVGDRVTITCRASQSISSYLNWYQQKPGKAPKLLIYAASSLQSGVPSRFSGSGSGTDFTLTISSLQPEDFATYYCQQAGNPHTFGQGTKLEIK
